Patent publication US20050136043A1, “TGFbeta signaling inhibitors” (Ludwig Institute for Cancer Research, priority 2003, published 2005)

Experiments:
TβRII = biological target: T1, TβRII (Homo sapiens, UniProt P37173); experiment: In vitro kinase assay (autophosphorylation) of receptor expressed in COS-7 cells; format: biochemical; details: 10 μM peptide, FIG. 5
T1 construct: made in house; host or cells: COS-7 cells (transfected, Ni-NTA precipitated)
Experimental: (§1) For in vitro kinase assay of type I and type II TGFβ family receptors, p38α and SAPKα2 kinases, COS-7 cells were transfected with the kinase expression vectors or the control empty pcDNA3 vector using the DEAE-dextran method. Proteins were extracted in a lysis buffer (50 mM Tris-HCl, pH 7.5, 50 mM NaCl, 1% NP-40, 10 μg/mL aprotinin, 0.1 mM PMSF). HA-tagged proteins (ALK1 to ALK7, p38R, SAPKR2) were immunoprecipitated with anti-HA antibody (12CA5; Roche); His6-tagged proteins (type II receptors) were precipitated with Ni-NTA agarose (Qiagen). The precipitates were washed in extraction buffer, with 20 mM imidazole for Ni-NTA agarose-precipitated proteins, and two times with kinase buffer (20 mM HEPES, pH 7.4, 10 mM MgCl2, 2 mM MnCl2, 1 mM DTT). The kinase reaction was initiated by addition of 20 μL of kinase buffer containing 0.5 μCi of [γ-32P]ATP, 5.0 μM ATP, and inhibitory peptides at a final concentration of 10 μM. The reaction was performed at 22° C. for 20 min and terminated by addition of SDS-containing sample buffer and boiling for 5 min. The reaction products were analyzed by SDS-PAGE and exposure in a Fuji X2000 phosphorimager. Equal loading was controlled by immunoblotting aliquots of the samples with a HA probe (Y-11; Santa Cruz) or anti-His antibody (Qiagen).
(§2) To evaluate whether the substrate-mimicking peptides affect kinases of type I and type II reptors of the TGFβ family, we studied the influence of peptides on authophosphorylation of all known mammalian type I receptors [ALK-1, ActR-I (ALK-2), BMPR-IA (ALK-3), ActR-IB (ALK-4), TβR-I (ALK-5), BMPR-IB (ALK-6), and ALK-7], TβRII, ActR-II, BMPR-II, p38R, and SAPKR2 (FIG. 5). The kinases were expressed in COS-7 cells and purified by using specific anti-tag antibodies or Ni-NTA agarose, and kinase activity was tested in the presence of peptides.

TβR-I (ALK-5) = biological target: T2, TβR-I (ALK-5) (Homo sapiens, UniProt P36897); experiment: as above; format: biochemical; details: 10 μM peptide, FIG. 5
T2 construct: made in house; host or cells: COS-7 cells (transfected, immunoprecipitated)
T2 sequence (P36897 34-503): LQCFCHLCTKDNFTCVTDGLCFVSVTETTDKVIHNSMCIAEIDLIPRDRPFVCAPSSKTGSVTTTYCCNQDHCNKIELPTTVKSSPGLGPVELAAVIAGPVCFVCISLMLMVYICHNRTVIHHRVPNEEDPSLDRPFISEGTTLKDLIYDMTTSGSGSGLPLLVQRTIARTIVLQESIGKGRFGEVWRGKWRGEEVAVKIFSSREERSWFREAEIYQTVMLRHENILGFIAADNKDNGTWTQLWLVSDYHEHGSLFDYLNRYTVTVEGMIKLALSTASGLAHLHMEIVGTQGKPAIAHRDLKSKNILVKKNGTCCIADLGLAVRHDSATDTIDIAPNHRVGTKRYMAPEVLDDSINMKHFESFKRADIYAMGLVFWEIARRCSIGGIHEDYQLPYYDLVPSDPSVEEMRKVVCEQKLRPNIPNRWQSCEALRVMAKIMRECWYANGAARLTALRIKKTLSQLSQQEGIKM
Experimental: as §1, §2

ALK-1 = biological target: T3, ALK-1 (Homo sapiens, UniProt P37023); experiment: as above; format: biochemical; details: 10 μM peptide, FIG. 5
T3 construct: made in house; host or cells: COS-7 cells (transfected, immunoprecipitated)
T3 sequence (P37023 22-503, species assumed): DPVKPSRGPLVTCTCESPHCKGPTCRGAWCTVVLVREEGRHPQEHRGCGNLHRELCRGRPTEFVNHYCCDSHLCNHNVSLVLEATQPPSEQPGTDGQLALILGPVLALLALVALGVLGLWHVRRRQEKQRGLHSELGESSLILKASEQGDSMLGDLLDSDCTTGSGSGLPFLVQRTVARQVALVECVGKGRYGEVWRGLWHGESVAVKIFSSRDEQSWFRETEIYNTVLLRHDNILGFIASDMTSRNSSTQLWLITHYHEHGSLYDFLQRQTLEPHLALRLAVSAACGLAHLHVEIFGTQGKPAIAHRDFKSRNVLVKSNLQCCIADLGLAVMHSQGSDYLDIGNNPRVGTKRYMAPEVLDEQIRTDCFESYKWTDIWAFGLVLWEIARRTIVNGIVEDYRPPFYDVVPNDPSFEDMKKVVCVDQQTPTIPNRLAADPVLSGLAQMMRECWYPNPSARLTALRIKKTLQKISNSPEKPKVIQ
Experimental: as §1, §2

BMPR-II = biological target: T4, BMPR-II (Homo sapiens, UniProt Q13873); experiment: as above; format: biochemical; details: 10 μM peptide, FIG. 5
T4 construct: made in house; host or cells: COS-7 cells (transfected, Ni-NTA precipitated)
T4 sequence (Q13873 27-1038): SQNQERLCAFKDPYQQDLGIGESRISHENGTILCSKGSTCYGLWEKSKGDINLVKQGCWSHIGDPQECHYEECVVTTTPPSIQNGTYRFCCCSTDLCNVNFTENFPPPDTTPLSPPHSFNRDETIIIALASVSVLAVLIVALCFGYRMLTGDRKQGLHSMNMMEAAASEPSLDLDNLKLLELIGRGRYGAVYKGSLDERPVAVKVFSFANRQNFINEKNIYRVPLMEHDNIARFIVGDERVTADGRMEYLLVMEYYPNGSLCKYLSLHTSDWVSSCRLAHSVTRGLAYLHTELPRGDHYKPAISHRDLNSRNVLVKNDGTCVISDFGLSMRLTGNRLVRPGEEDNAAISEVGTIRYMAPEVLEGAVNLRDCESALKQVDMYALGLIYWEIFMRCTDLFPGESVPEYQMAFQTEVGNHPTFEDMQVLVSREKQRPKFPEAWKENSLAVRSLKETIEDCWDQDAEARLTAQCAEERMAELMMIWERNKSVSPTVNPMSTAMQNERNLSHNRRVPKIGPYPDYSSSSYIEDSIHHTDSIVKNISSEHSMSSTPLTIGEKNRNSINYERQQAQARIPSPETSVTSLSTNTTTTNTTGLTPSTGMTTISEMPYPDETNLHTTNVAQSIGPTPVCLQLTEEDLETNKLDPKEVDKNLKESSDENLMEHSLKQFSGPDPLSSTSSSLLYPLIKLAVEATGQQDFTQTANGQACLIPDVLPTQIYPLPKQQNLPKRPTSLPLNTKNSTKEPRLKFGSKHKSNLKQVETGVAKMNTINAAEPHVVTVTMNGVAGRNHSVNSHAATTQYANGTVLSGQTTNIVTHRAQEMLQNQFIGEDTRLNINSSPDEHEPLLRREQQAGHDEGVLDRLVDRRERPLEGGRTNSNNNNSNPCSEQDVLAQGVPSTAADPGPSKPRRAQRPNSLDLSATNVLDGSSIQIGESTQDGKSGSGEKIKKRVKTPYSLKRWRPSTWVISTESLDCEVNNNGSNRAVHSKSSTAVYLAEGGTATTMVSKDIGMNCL
Experimental: as §1, §2

[1] = system: phosphorylation of endogenous Smad2 by TβR-I in Mv1Lu cells; experiment: TGFβ1-dependent phosphorylation of endogenous Smad2 in Mv1Lu cells (pS2 immunoblot); format: cell-based; details: Mv1Lu cells pretreated with peptide, 15 min TGFβ1, FIG. 6A
p38R = p38R (Homo sapiens, UniProt Q16539); experiment: In vitro kinase assay of kinase expressed in COS-7 cells; format: biochemical; details: 10 μM peptide, FIG. 5
p38R, sequence (Q16539 whole entry): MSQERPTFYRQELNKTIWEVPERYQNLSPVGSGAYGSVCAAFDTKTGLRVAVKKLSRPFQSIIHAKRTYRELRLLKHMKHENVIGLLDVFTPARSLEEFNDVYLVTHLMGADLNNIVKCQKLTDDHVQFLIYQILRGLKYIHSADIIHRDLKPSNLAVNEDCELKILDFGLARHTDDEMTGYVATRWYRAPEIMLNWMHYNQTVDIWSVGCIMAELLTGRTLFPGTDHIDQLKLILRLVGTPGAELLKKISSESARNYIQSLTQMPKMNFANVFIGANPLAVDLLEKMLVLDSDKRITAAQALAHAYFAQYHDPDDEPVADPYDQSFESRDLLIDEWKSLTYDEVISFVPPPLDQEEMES
Experimental: as §1, §2

SAPKR2 = SAPKR2 (Homo sapiens, UniProt P45984); experiment: as above; format: biochemical; details: 10 μM peptide, FIG. 5
Experimental: as §1, §2

T1 sequence (P37173 23-567, species assumed): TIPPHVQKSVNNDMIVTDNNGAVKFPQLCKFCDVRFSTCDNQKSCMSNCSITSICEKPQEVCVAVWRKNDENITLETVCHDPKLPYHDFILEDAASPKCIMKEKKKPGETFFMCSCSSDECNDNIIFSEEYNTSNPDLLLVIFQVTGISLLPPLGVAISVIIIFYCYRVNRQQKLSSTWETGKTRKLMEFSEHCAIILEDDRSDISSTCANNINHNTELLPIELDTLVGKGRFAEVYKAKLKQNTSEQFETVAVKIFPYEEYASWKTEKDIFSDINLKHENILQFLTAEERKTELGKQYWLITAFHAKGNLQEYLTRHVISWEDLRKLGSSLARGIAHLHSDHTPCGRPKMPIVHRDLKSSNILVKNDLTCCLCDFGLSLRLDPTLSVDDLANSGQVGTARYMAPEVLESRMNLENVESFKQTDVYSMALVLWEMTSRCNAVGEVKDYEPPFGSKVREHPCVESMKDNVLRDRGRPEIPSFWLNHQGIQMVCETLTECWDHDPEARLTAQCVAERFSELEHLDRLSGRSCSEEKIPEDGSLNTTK

Sequence | Effect on TβRII kinase (TβRII) | Effect on TβR-I kinase (TβR-I (ALK-5)) | Effect on ALK-1 kinase (ALK-1) | Effect on BMPR-II kinase (BMPR-II) | Effect of peptides on TGFβ1-dependent phosphorylation of endogenous Smad2 [1] | Effect on p38R kinase (p38R) | Effect on SAPKR2 kinase (SAPKR2) | Inhibition of TGFβ1-dependent phosphorylation of endogenous Smad2 compared to nontreated cells [1] [%]
RQIKIWFQNRRMKWKKTQMGSPSVRCSSMS (listed as Homo sapiens) [antp-Sm2S, penetratin fused to the C-terminus of wild-type Smad2] | without any effect | inhibited | without any effect | without any effect | weaker affect | without any effect | without any effect | 
RQIKIWFQNRRMKWKKTQMGSPSVRCSAMA (listed as Homo sapiens) [antp-Sm2A] | without any effect | inhibited | without any effect | without any effect |  | without any effect | without any effect | 67
